Earlier results in paper PMC7970000.
Like-named read-outs stand apart in the source and are kept apart here. One block for each substance: values may come before it.

How the values were obtained:
retromer (Homo sapiens) = retromer (Homo sapiens) (UniProt O75436)
VPS29 (Homo sapiens) [1] = molecular target: VPS29 (Homo sapiens) (UniProt Q9UBQ0)
[2] = molecular target: SNX3-retromer complex (Homo sapiens) (UniProt O60493)
VPS29 (Homo sapiens) [3] = molecular target: VPS29 (Homo sapiens) (UniProt Q9UBQ0); remark: listed apart in the source

Chain of UniProt O60493 (O60493 2-162, chain 1 of 2): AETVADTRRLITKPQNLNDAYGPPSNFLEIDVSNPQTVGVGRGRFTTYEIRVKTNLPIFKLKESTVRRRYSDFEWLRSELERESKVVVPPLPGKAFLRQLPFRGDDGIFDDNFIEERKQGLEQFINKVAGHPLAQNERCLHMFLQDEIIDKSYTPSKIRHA
Chain of UniProt O60493 (O75436 whole entry, chain 2 of 2, further chain): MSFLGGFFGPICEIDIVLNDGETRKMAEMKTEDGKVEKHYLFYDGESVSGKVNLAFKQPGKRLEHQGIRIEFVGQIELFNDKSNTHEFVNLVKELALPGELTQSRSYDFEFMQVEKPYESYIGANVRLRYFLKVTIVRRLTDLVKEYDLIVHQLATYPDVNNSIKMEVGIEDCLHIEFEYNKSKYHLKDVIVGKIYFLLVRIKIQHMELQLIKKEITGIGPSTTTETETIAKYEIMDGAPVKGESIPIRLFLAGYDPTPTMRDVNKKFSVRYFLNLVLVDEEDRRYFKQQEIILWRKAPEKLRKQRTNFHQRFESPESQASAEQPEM
Chain of UniProt O75436 (O75436 whole entry): as the sequence (O75436 whole entry, chain 2 of 2, further chain) above

- Kd (retromer (Homo sapiens)): 0.335 µM
- Kd (VPS29 (Homo sapiens) [1]): 20 µM
Substance: TBC1D5 (from UniProt Q92609)

- Kd [2]: 127 µM
Substance: DMT1-II (from UniProt P49281)

- Kd (VPS29 (Homo sapiens) [3]): 3.5 µM
Substance: VARP CHPLCxCxxC motif (from UniProt Q96NW4)
